# Laboratory results as given in IntAct's records for PubMed 33393904.
# B1: SUN domain-containing protein 2 (Homo sapiens), Q9UH99 (parent)
# chain: MSRRSQRLTRYSQGDDDGSSSSGGSSVAGSQSTLFKDSPLRTLKRKSSNMKRLSPAPQLGPSSDAHTSYYSESLVHESWFPPRSSLEELHGDANWGEDLRVRRRRGTGGSESSRASGLVGRKATEDFLGSSSGYSSEDDYVGYSDVDQQSSSSRLRSAVSRAGSLLWMVATSPGRLFRLLYWWAGTTWYRLTTAASLLDVFVLTRRFSSLKTFLWFLLPLLLLTCLTYGAWYFYPYGLQTFHPALVSWWAAKDSRRPDEGWEARDSSPHFQAEQRVMSRVHSLERRLEALAAEFSSNWQKEAMRLERLELRQGAPGQGGGGGLSHEDTLALLEGLVSRREAALKEDFRRETAARIQEELSALRAEHQQDSEDLFKKIVRASQESEARIQQLKSEWQSMTQESFQESSVKELRRLEDQLAGLQQELAALALKQSSVAEEVGLLPQQIQAVRDDVESQFPAWISQFLARGGGGRVGLLQREEMQAQLRELESKILTHVAEMQGKSAREAAASLSLTLQKEGVIGVTEEQVHHIVKQALQRYSEDRIGLADYALESGGASVISTRCSETYETKTALLSLFGIPLWYHSQSPRVILQPDVHPGNCWAFQGPQGFAVVRLSARIRPTAVTLEHVPKALSPNSTISSAPKDFAIFGFDEDLQQEGTLLGKFTYDQDGEPIQTFHFQAPTMATYQVVELRILTNWGHPEYTCIYRFRVHGEPAH
# Variants of: B1
# Conditions: with syne1_human SYNE1, Q8NF91
row,Variant,effect of a mutation on the interaction
1,C705A,increasing interaction strength
2,I579E,disrupting interaction strength
